The experiment deals with S6K1(WT)-HA (mouse, UniProt Q8BSK8-2 1-502). Kind of experiment: co-IP.

These results are taken from paper PMC4917298 (Nature immunology, 2016).

Sequence of S6K1(WT)-HA (Q8BSK8 24-525): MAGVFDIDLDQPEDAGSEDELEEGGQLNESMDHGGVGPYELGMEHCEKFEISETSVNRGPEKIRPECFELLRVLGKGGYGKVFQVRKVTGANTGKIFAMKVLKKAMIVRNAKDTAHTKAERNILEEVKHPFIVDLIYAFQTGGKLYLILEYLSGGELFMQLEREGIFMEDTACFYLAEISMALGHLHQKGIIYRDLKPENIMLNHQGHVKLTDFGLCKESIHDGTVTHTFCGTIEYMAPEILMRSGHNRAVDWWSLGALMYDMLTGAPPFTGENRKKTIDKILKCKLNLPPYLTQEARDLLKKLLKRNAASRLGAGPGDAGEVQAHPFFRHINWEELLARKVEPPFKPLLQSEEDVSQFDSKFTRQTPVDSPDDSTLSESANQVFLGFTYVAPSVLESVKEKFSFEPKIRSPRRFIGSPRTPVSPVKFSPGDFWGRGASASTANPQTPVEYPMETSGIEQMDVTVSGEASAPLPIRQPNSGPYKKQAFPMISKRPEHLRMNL

B1: phosphorylated STING-Flag (phosphorylated by TBK1) (natural protein, mouse, UniProt Q3TBT3 1-378, looked up)
chain: MPYSNLHPAIPRPRGHRSKYVALIFLVASLMILWVAKDPPNHTLKYLALHLASHELGLLLKNLCCLAEELCHVQSRYQGSYWKAVRACLGCPIHCMAMILLSSYFYFLQNTADIYLSWMFGLLVLYKSLSMLLGLQSLTPAEVSAVCEEKKLNVAHGLAWSYYIGYLRLILPGLQARIRMFNQLHNNMLSGAGSRRLYILFPLDCGVPDNLSVVDPNIRFRDMLPQQNIDRAGIKNRVYSNSVYEILENGQPAGVCILEYATPLQTLFAMSQDAKAGFSREDRLEQAKLFCRTLEEILEDVPESRNNCRLIVYQEPTDGNSFSLSQEVLRHIRQEEKEEVTMNAPMTSVAPPPSVLSQEPRLLISGMDQPLPLRTDLI
modifications: phosphorylated by TBK1 (slower mobility, removed by calf intestine phosphatase); sites not stated
For the molecule B1, the binding result is reported as “binds”.
